{"source": "patent US20130136731", "proteins": {"B1": {"name": "native tissue plasminogen activator (protein)", "chain": "SYQVICRDEKTQMIYQQHQSWLRPVLRSNRVEYCWCNSGRAQCHSVPVKSCSEPRCFNGGTCQQALYFSDFVCQCPEGFAGKCCEIDTRATCYEDQGISYRGTWSTAESGAECTNWNSSALAQKPYSGRRPDAIRLGLGNHNYCRNPDRDSKPWCYVFKAGKYSSEFCSTPACSEGNSDCYFGNGSAYRGTHSLTESGASCLPWNSMILIGKVYTAQNPSAQALGLGKHNYCRNPDGDAKPWCHVLKNRRLTWEYCDVPSCSTCGLRQYSQPQFRIKGGLFADIASHPWQAAIFAKHRRSPGERFLCGGILISSCWILSAAHCFQERFPPHHLTVILGRTYRVVPGEEEQKFEVEKYIVHKEFDDDTYDNDIALLQLKSDSSRCAQESSVVRTVCLPPADLQLPDWTECELSGYGKHEALSPFYSERLKEAHVRLYPSSRCTSQHLLNRTVTDNMLCAGDTRSGGPQANLHDACQGDSGGPLVCLNDGRMTLVGIISWGLGCGQKDVPGVYTKVTNYLDWIRDNMRP"}}, "target": "thrombin, P00734"}
{"protein": "B1", "values": [{"measurement": "clotting time assay (fibrin mesh formation)", "result": "fibrin mesh formation in presence or absence of native tPA up to high micro molar concentrations was essentially unaltered compared to buffer controls"}]}
